Assay: yeast display, Sf9 membrane polyspecificity reagent, FACS + sequencing; frameworks hold sequencing errors
How it was run: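 Nanobodies from a synthetic yeast display library (Saccharomyces cerevisiae BJ5465), induced 36–48 hours with galactose, were stained 1 hour at 4 °C with 10% biotinylated, detergent-solubilized Sf9 membrane reagent, enriched on streptavidin microbeads, then FACS-sorted. Anti-HA (expression) and streptavidin (reagent binding) fluorescence set low and high (top ~1%) gates. Polyreactivity labels come from the gate of origin. Genes were colony-PCR amplified, MiSeq 2 × 250 sequenced and filtered by CDR length.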

Sequence: QVQLVESGGGLGEAGGSLRLSCAASGSTFGYYAMGWYRQAAGKEREFVAAITGNSDNTYYADSVKGRFTISRDNATNTVYLQMNSLKPEDTAVYYCNDALDPFRFEYWRQGTQVTVSS
- polyreactivity (PSR sort gate): low polyreactivity

Sequence: QVQLVESGGGLVQAGGSLRISCAASGRIFGLYAMGWYRQAPGKERELVATINNSGGSTYYADSVKGRFTISRDNAKNTVYLEMKSLKPEDTAVYYCNAEFLYAASFIEYDYWGQVTQVTVSS
- polyreactivity (PSR sort gate): high polyreactivity

Sequence: QVQLVESGGGLVQAGGSLRLSCAASGFTFSFYAMGWYRQAPGKERELVAVISRSGGGTYYADSVKGRFTISRDNAKHTVYLQMNSLKPEDTAVYYCAARLGNRRYDYWGQGTQVTVSS
- polyreactivity (PSR sort gate): high polyreactivity

Sequence: QVQLVESGGGLVQAGGSLRLSCAASGRTFHIYAMGWYRQAPGKERELVAAIRGRSGSTYYADSVKGRFTISRDNAKNTVYLQLNSLKPEDTAVYYCAVGRYPYGSARYRFDYWGQGTQVTVSS
- polyreactivity (PSR sort gate): high polyreactivity

Sequence: QVQLVESGGGLVQAGGSLRLSCAASGRTFSWNAMGWYRQAPGKERELVAAISNSGGSTYYADSVKGRFTISRHNAKNPVYLQMNSLKPEDTAVYYCAADDIYKYYQYYAFPYYRYDYWGQGTQVTVSS
- polyreactivity (PSR sort gate): low polyreactivity

Sequence: QVQLVESGGGLVQAGGSLRLSCAASGSTFGYYAMGWSRQAPGKERELVAVITYSGGSTYYADSVKGRFTISRDNAKNTVYLQMNSLKPEDTAVYYCAAVIGVWYYYTYDYWGQGTQVTVSS
- polyreactivity (PSR sort gate): low polyreactivity

Sequence: QVQLVESGGGIVQAGGSLRLSCAASGRTFRSNVMGWYRQAPGKERELVAAISWRGGNTHYADSVKGRFTISRDNAKNTVYLQMNSLKREDTAVFYCAARVTSRRDPDQIHGYWGQGTQVTVSS
- polyreactivity (PSR sort gate): high polyreactivity

Sequence: QVQLVESGGGLVQAGGSLRLSCAASGFTFEGNAMGWYRQAPGKEREFVAAITSNGGGTYYADSVKGRFTISRDNAKNTVYLQMNSLKPEDTAVYDCAATYWTWYSWYDYWGQGTQVTVSS
- polyreactivity (PSR sort gate): high polyreactivity

Sequence: QVQLVESGGGLVQAGGSLRLSCAASGSIFGENAMGWYRQATGKERELVAAITWGGTSTYYADSVKGRYTISRDNAKNTVYLQMNSLKPEDTAVYYCNTPRYVRRQGVKRYDYWGQGTQVTVSS
- polyreactivity (PSR sort gate): low polyreactivity

Sequence: QVQLVESGGGLVQAGGSLRLSCAASGSTFYHYTMGWYRQAPGKERELVARISRSGGSTYYADSVKGRFTISRDNAKNTVYLQMNSLKPEDTAGYYCNKGSFYGSSQVGGTGYDYWGQGTQVTVSS
- polyreactivity (PSR sort gate): low polyreactivity

Sequence: QVQLVESGGGLVQAGGSLRLSCAASGRIFPQYAMGWYRQAPGKERELVAAISVSGTRTYYADSVKGRFTISRDNAKNTVYLQMNSLKPEDTAVYYCNTLGKYDGFYYWGQGTQVTVSS
- polyreactivity (PSR sort gate): high polyreactivity

Sequence: QVQLVESGGGVVQAGGSLRLSCAASGFTFAQYAMGWYRQAPGKERELVATITRGGITYYADSVKGRFTISRDNAKNTVYLQMNSLKPEDTAVYYCAARVVPPYSRRDDYWGQGTQVTVSS
- polyreactivity (PSR sort gate): high polyreactivity

Sequence: QVQLVESGGGLVQAGGSLRFSCAASGSTYYYNAMGWDRQAPGKERELVASISWSGGSTRYADSVKGRFTISRDNAKNTVYLQMNSLKPEDTAVYYCAARYILSKYGSGVRYNYWGQGTQVSVSS
- polyreactivity (PSR sort gate): high polyreactivity

Sequence: QVQLVESGGGLVQAGGSIRLSCAASGFTFDAYAMGWYRQAPGKESELVAAITTSGGNTNYADSVKGRFTISRDNAKNTVYLQMNSLKPEDTAVYYCASDAAVEYGKISYDYWGQGTQVTVSS
- polyreactivity (PSR sort gate): low polyreactivity

Sequence: QVQLVESGGGLVQAGGSLRLSCAASGFIYSSYAMGWYRQAPGKERELVAAITRNGGSTYYADSVKGRFTISRDNAKNTVYLQMNSLKPEDTAVYYCAAPRWRGVGRFDYWGQGSQVTVSS
- polyreactivity (PSR sort gate): high polyreactivity

Sequence: QVQLVESSGGLVQAGCSLRLSCAASGFTFGYYAMGWYRQAPGKERELVAAISRSGGRTYYADSVKGRFTISRDKAKNTVYLQMNSLNPEDTAVYYCAAWYVPGYLVDSDYWGQGTQVTVSS
- polyreactivity (PSR sort gate): high polyreactivity

Sequence: QVQHVESGGGLVQAGGSLRLSCAASGSIFGRYAMGWYRPAPGKERELVAAITRSGVSTYYADSVTGRFTSARDNAKNTVDLQMNSLKPEDTAVYYCNAYYPIRSSPYGYYYWGQGTQVTVSS
- polyreactivity (PSR sort gate): high polyreactivity

Sequence: QVQLVESAGGLVQAGGSLRLSCAASGFTFYGYAMGAYSQAPGKERELVAAITSGGSTNYADAVKGRFTISRDNAKNTVYVQLNSLKPEDTAVYHCAAVWVANTARYSDTFGYWGQGTQVTVSS
- polyreactivity (PSR sort gate): high polyreactivity

Sequence: QVQHVESGGGLVQAGGSLRLSCAASGRTFYSYAMGWYRQAPGKERELVAAINSGGTTYYADSVKGRFTISRDNAKNTVYLEINSLKPEDTAVYYCAAVSYLFLYQGYPIAYPMYYWGQGTQVTVSS
- polyreactivity (PSR sort gate): low polyreactivity

Sequence: QVQLVESAGGLVQAGGSLRLSCAASGRIFSAYAMRWYRQARGKERQLVAAITWSGANTDYADSVKGRFTISRDNAKNTVYLQMTSLKPEDTAVYYCNASFGRDSAYDYWGQGTQVTVSS
- polyreactivity (PSR sort gate): low polyreactivity

Sequence: QVQLVESGGGLVQAGGSLRLICAASGLIFVSYAMGWSRQAPGKERELVAAITYGGDSTFYADSVKGRFTISRDNAKNTVYLQMNSLKPEDTAVYYCNADIWFIWHSFGWGYDYWGQGTQVTVSS
- polyreactivity (PSR sort gate): low polyreactivity

Sequence: QVQLVDSGGGLVQAGGSHRLSCADSGTFVYNAMGWYRQAPGKEREFVAAITKSGTSTSYADSVKGRFTISRDNAKNTVYLQMNSLIPEATAVYYCNARRYWYRRAYSVGYDYWGQGTQVTVSA
- polyreactivity (PSR sort gate): high polyreactivity

Sequence: QVQLVESGGGLVQAGGSLRLSCAASGSIFEINAMGWYRQGPGKERELVAAITGSGGSTHYADSVKGRFTISRDNAKNTDYLQMNSLKPEDTAVYYGAAVPRYQDGYWGQGTQVTVSS
- polyreactivity (PSR sort gate): low polyreactivity

Sequence: QVQLVESGGGLVQAGGSLRLSCAASGSLFSWYTKGWYRQAPGKERELVAAISRSGGRTYYADSVKGRFTISRDNAKNTVYLQMNSLKPEDTAVYSCAARVYSYYGSRGQRYDYWGQGTQVTVSS
- polyreactivity (PSR sort gate): high polyreactivity

Sequence: QVQLVESGGGLVQAGGSLRLSCAASGSIFYWYAMGWYRQAPGKERELVAAISSGGSTNYADSVKGRFTISRDNAKNTVYLQMNSLKPEDTAVYYCNADIRSFYWEYYTGLDSWGQGTQVTVSS
- polyreactivity (PSR sort gate): low polyreactivity

Sequence: QVQLVESGGGLVQAGGSLRLSCAASGSTFPYPYTMGWYRQAPGKERELVAVISRTGGSTFYADSVKGRFTISRDNAKNTVYLQMNSLKPEDTAVYYCAARYAVGAHYDYWGQGTQVTVSS
- polyreactivity (PSR sort gate): high polyreactivity

Sequence: QVQLVESGGGLVQAGGSLRLSCAASGRTFKHYAMGWYRPAPGKERELVAAITSGGSTYYADSVKGRFTISRDNAKNTVYLQMNSLKPEDTAVYYCNKESYFDTYRRYDSWGQGTQVTVSS
- polyreactivity (PSR sort gate): low polyreactivity

Sequence: QVQIVESGGGLVQAGGSLRLSCAASGRIFVYNAMGWYRQAPGKERELVAAISSTGSTNYADSVKGRFTISRDNAKNTVYLQMNSLKPEDTAVYYCAAVYYFYGFSGYYGQYDYWGQGSQVTVSS
- polyreactivity (PSR sort gate): low polyreactivity

Sequence: QDQLVHSGGGLVQSGGSLRISCAASGFTFYLYGMGRYRQAPGKERDLDAAIDSTGSTNYADSVKGRFTISRDNAKNTVYLQMNSLKPEDTAVYYCAADFYLYYFRSPYDYWGQGTQVTVSS
- polyreactivity (PSR sort gate): high polyreactivity

Sequence: QVQLVESGGGLVQAGGSLRLSCAASGLTLTHYAMGWYRQAPGKERELVAAISSSGGRTYYADSVKGRFTISRDNAKNTVYLQMNSLKPEDTAVYYCAARVIASRGRYGYWGQGTQVTVSS
- polyreactivity (PSR sort gate): high polyreactivity

Sequence: QVQLVESGGGLFQAGGSLRLSCAASGRTIYLNAMGWYRQAPLKERELVAAITSSGGRTYYADSVKGRFTISRDNAKNSVYLQMNSLKPEDTAVYYCAAVVSSKPSFYWGQGSQVTVSS
- polyreactivity (PSR sort gate): low polyreactivity

Sequence: QVQLVESGGGLVQAGGSLRLSCAASGRTFYYNAMGWYRQAPGKERQLVAAITSSGSTYYADSVKGRFTISRDNAKNTVYLQMNSLKPEDTAVYYCASVTSYSHYRLSGWYRFEYWGQGTQVTVSS
- polyreactivity (PSR sort gate): high polyreactivity

Sequence: QVQLVESGGGLVQAGGSLRLSCAASGFTIYWYTMVWYRQAPGKERELVAAISRRGGRTYYADSVKGRFTISRDNAKNTVYLQMNSLKPEDTAVYYCAADGTSPVDMNYWGQGTQVTVSS
- polyreactivity (PSR sort gate): high polyreactivity

Sequence: QVQLVESGGGLVQAGGSHRLSCAASGSIFYPYPMGLYRQAPGKERELVAAITTRDDSTRYADSVKGRFTISRDNAKNTGYLQMNTLKPEDTAVYYCNTDYGPVFGQYYWYELDYWGQGTQVNVSS
- polyreactivity (PSR sort gate): low polyreactivity

Sequence: QVQLVESGGGLVQAGGSLRLSCAASGRTFGPNAMGWYRQAPGKERELVAAIRYSGGSTYYADSVKGRFTISRDNAKNTVYLQMNSLKPEDTAVYYCAADYVSYVGERGTLYVRYDYWGQGTQVTVSS
- polyreactivity (PSR sort gate): high polyreactivity

Sequence: QVHLVESGGGLVQAGGSLRLSCAASGRIFSYYALGWSRQAPGKERELVAAISWSGSRTYYADSVKGRFTFSRDNAKNTVYFQMNSLKPEDTAVYYCDAEVWSTQGSATVQYDYCGQGTQVTVSS
- polyreactivity (PSR sort gate): high polyreactivity

Sequence: QVQLHESGGGLEQAGGSLRLSCAASGYISDIGTMGWYRQAPGKEREFVATIVVGSTTNYADSVKGRFTISRDNAKNSVYLQPESGRYRGVLLRGWLLAVGKFTYWGQGTQETVSS
- polyreactivity (PSR sort gate): low polyreactivity

Sequence: QVQLEESGGGLVQAGGSLRLSCAASGSTFRYYAMGWYRQAHGKERELVAGISSSGGSTYYADSVKGRFTISRDNAKNTVYLQMNSLKPEDTAVYYCNAARGSSRSWAVFADYDYWGQGTQVTVSS
- polyreactivity (PSR sort gate): high polyreactivity

Sequence: QVQLVESGGGLVQAGGSLRLSCAASGGTFNHYAMGWYRQAPGKERELVSSITNGASTYYADSVKGRFTISRDNAKNTVYLQMNSLKPEDTAVYYCAARTAVGPIRSYWYDYWGQGTQVTVSS
- polyreactivity (PSR sort gate): low polyreactivity

Sequence: QVQLVESGGGLVQAGGSLRLSCAASGLIFTYYAMGWYRQAPGKERELVAAISSSGVNTYYADSVKGRFTISRDNAKNTVYLQMNSLKPEDTAVYYCAAELQPSPVGGIIQYGFDYWGQGTPVTVSS
- polyreactivity (PSR sort gate): low polyreactivity

Sequence: QVQLVESGGGLVQAGGSLRLSCAASGRIFLGNVMGWYRQAPGKERELVAAISWSGGSTYADSVKGRFTISRDNAKNTVYLQMNSLKPEDTAVYYCNAELGSYDKDYDYWGQGTQVTVSS
- polyreactivity (PSR sort gate): low polyreactivity

Sequence: QVQLVESGGGLVQAGGSLRLSCADSGFNFKYYAMGWYRQAPGKERELVATITSRGGSTYYADSVKGRFTISRDNAKNTVYLQMNSLKPEATAVYYCNARSSSPGKYGYWGQGTQVTVSS
- polyreactivity (PSR sort gate): high polyreactivity

Sequence: QVQLVESGGGLVQAGGSLRLSCAATGSIFKWYAMGWYRQEPGKERELVSAISKSGGSTYYADSVKGRFTISRDNAKNTVYLQINSLKPEDTAVYYCNAVYIGSRRRYEYDYWGEGTQVTVSS
- polyreactivity (PSR sort gate): high polyreactivity
